Values of other authors in patent US11878044B2, “Combination therapy for ischemia” (NoNO Inc., priority 2011, dated 2024).

Molecular target: binding of NMDAR 2B to PSD-95 (Homo sapiens, UniProt P78352)
Details: reported by Bach

Sequence of binding of NMDAR 2B to PSD-95 (P78352 whole entry): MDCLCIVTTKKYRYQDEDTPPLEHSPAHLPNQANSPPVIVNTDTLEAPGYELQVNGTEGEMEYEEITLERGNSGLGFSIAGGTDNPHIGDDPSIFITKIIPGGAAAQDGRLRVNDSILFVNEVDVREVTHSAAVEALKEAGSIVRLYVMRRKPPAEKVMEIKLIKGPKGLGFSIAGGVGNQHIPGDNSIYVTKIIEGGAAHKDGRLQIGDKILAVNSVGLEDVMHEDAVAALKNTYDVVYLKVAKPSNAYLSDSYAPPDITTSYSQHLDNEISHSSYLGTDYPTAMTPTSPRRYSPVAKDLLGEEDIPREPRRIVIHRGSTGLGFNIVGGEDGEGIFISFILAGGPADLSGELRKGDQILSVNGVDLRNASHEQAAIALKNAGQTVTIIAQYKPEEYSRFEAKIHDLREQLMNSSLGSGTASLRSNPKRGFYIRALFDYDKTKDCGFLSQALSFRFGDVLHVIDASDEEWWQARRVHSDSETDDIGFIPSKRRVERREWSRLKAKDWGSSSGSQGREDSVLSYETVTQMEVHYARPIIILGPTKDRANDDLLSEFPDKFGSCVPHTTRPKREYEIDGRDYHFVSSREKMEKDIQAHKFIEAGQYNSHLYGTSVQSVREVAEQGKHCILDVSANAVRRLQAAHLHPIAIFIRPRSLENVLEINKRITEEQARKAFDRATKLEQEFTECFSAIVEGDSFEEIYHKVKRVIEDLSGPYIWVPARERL

Substance: IESDV
- inhibiting binding of NMDAR 2B to PSD-95: effective in inhibiting binding of NMDAR 2B to PSD-95
